Where “and” joins values, the source holds several entries; their conditions need not be identical. Identical values can stand only once. Like-named read-outs stand apart in the source and are kept apart here.
Legend:
[1] = target: T1, human BR3 extracellular domain (human, UniProt Q96RJ3 1-61); experiment: SPR with Fab
T1 construct: biotinylated where used as tracer; also called hBR3-ECD; BR3-ECD

[2] = target: T1, human BR3 extracellular domain; experiment: SPR, BR3 ECD on chip;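 further: Anti-BR3 antibodies passed over the chip at high flow in PBS with 0.05% polysorbate 20, on and off rates fitted together globally to a 1:1 binding model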
[3] = target: T2, variant human BR3-Fc fusion; experiment: SPR, vBR3-Fc on chip;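 further: Anti-BR3 antibodies passed over chip-bound BR3-Fc in PBS with 0.05% polysorbate 20, on and off rates fitted together globally to a 1:1 binding model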
T2 construct: produced in CHO cells; also called vBR3-Fc; vhBR3-Fc

[4] = target: T1, human BR3 extracellular domain; experiment: BIAcore, Fab over immobilised target
[5] = target: T2, variant human BR3-Fc fusion; experiment: BIAcore, Fab over immobilised target
[6] = target: T1, human BR3 extracellular domain; experiment: F(ab)'2 phage solution binding competition ELISA
mouse BR3-Fc [7] = target: T3, mouse BR3-Fc (mouse); experiment: F(ab)'2 phage solution binding competition ELISA
T3 construct: (BR3 ECD fused to a murine Fc); also called mBR3-Fc; murine BR3-Fc
T3 chain: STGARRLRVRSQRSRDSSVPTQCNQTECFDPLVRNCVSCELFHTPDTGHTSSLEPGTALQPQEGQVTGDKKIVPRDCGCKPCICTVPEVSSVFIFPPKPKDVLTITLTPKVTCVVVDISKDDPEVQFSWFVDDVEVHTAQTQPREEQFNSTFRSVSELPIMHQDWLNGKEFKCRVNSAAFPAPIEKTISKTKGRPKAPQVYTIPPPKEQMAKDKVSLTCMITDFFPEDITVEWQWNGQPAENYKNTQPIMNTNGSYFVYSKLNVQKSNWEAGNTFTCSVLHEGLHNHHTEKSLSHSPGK

[8] = target: T4, mouse BR3 extracellular domain (mouse, UniProt Q9D8D0 1-64); experiment: F(ab)'2 phage solution binding competition ELISA
T4 construct: also called mBR3-ECD; mBR-ECD
T4 sequence: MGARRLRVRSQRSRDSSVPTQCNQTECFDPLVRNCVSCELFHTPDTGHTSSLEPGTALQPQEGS

mouse BR3-Fc [9] = target: T3, mouse BR3-Fc; experiment: BAFF blocking ELISA: F(ab)'2 phage added to coated mBR3-Fc after mBAFF-Flag
human FcRn [10] = target: T5, human FcRn (human, UniProt P55899 24-297; P61769 21-119, limits assumed); experiment: SPR, FcRn on chip, kinetic, pH 6
T5 construct: construct not described; also called huFcRn

cynomolgus FcRn [11] = target: T6, cynomolgus FcRn (cynomolgus monkey, UniProt Q8SPV9 24-297; Q8SPW0 21-119, limits assumed); experiment: SPR, FcRn on chip, kinetic, pH 6
T6 construct: construct not described; also called cynoFcRn; cyno FcRn

human FcRn [12] = target: T5, human FcRn; experiment: SPR, FcRn on chip, kinetic, pH 6.0 (KDa)
cynomolgus FcRn [13] = target: T6, cynomolgus FcRn; experiment: SPR, FcRn on chip, kinetic, pH 6.0 (KDa)
human FcRn [14] = target: T5, human FcRn; experiment: SPR, FcRn on chip, equilibrium, pH 6.0 (KDb)
cynomolgus FcRn [15] = target: T6, cynomolgus FcRn; experiment: SPR, FcRn on chip, equilibrium, pH 6.0 (KDb)
[16] = target: T7, human FcγRI extracellular domain, His-tagged GST fusion (human, UniProt P12314 16-292); experiment: ELISA, captured FcgR-GST; A450 ratio to 9.1RF
T7 construct: extracellular domain; also called hFcgRI; Human I

[17] = target: T8, human FcγRIIa extracellular domain, His-tagged GST fusion (human, UniProt P12318 34-217); experiment: ELISA, captured FcgR-GST; A450 ratio to 9.1RF
T8 construct: extracellular domain; also called hFcgRIIa; Human IIa
T8 sequence (looked up): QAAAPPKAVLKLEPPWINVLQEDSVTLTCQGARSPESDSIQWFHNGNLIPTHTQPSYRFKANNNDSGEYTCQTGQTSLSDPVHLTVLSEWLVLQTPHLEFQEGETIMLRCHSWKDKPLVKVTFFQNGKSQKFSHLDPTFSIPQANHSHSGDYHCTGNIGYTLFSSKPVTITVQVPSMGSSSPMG

[18] = target: T9, human FcγRIIb extracellular domain, His-tagged GST fusion (human, UniProt P31994 43-217); experiment: ELISA, captured FcgR-GST; A450 ratio to 9.1RF
T9 construct: extracellular domain; also called hFcgRIIb; Human IIb
T9 sequence (looked up): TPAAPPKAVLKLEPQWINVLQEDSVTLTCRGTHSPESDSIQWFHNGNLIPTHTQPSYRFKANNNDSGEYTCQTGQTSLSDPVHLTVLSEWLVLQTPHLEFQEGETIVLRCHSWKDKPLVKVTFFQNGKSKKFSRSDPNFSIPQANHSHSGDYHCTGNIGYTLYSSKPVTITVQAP

[19] = target: T7, human FcγRI extracellular domain, …; experiment: ELISA, receptor-His-GST captured by anti-GST, uncomplexed IgG
[20] = target: T8, human FcγRIIa extracellular domain, …; experiment: ELISA, receptor-His-GST captured by anti-GST, IgG complexed with anti-kappa F(ab')2

B1: Hu11G9-46 Fab (Fab, V domains shown)
VH: EVQLVESGGGLVQPGGSLRLSCAASGDSITSGYWNWVRQAPGKGLEWVGYISYSGSTYYNPSLKSRFTISRDTSKNTFYLQMNSLRAEDTAVYYCAGLNDLYLYFDVWGQGTLVTVSS
VL: DIQMTQSPSSLSASVGDRVTITCRSSQSLVHSNGNTYLHWYQQKPGKAPKLLIYKVSNRFSGVPSRFSGSGSGTDFTLTISSLQPEDFATYYCSQSTHVPPFTFGQGTKVEIKR
notes: Fab
fold improved affinity relative to the chimeric 11G9 Fab [1]: > 10 fold | Kd [2]: 0.46 nM and 0.652 nM | koff [2]: 0.000808 s⁻¹ and 0.000867 s⁻¹ | kon [2]: 1.76e+06 M⁻¹ s⁻¹ and 1.33e+06 M⁻¹ s⁻¹ | Kd [3]: 1.38 nM and 1.62 nM | koff [3]: 0.000902 s⁻¹ and 0.000808 s⁻¹ | kon [3]: 660000 M⁻¹ s⁻¹ and 500000 M⁻¹ s⁻¹ | Kd [4]: 1.5 nM | Kd [5]: 5.4 nM

B2: Hu9.1-70 Fab (Fab, V domains shown)
VH: EVQLVESGGGLVQPGGSLRLSCAASDSPRSGYYISWVRQAPGKGLEWVGFIRDKANGYTTEYNPSVKGRFTISADTSKNTAYLQMNSLRAEDTAVYYCAQVRRALDYWGQGTLVTVSS
VL: DIQMTQSPSSLSASVGDRVTITCKSSQSLLYSSNQNNYLAWYQQKPGKAPKLLIYWASIRDSGVPSRFSGSGSGTDFTLTISSLQPEDFATYYCQQYYTYPYTFGQGTKVEIKR
notes: Fab
fold higher affinity than the chimeric 9.1 Fab [1]: ~2 fold | Kd [2]: 0.13 nM and 0.17 nM | koff [2]: 0.000137 s⁻¹ and 0.000163 s⁻¹ | kon [2]: 1.08e+06 M⁻¹ s⁻¹ and 950000 M⁻¹ s⁻¹ | Kd ([3]; 220 RU BR3-Fc immobilized): 0.95 nM | koff ([3]; 220 RU BR3-Fc immobilized): 0.00068 s⁻¹ | kon ([3]; 220 RU BR3-Fc immobilized): 720000 M⁻¹ s⁻¹ | Kd ([3]; 380 RU BR3-Fc immobilized): 0.61 nM | koff ([3]; 380 RU BR3-Fc immobilized): 0.000392 s⁻¹ | kon ([3]; 380 RU BR3-Fc immobilized): 640000 M⁻¹ s⁻¹ | Kd [4]: 0.15 nM | Kd [5]: 0.78 nM

B3: Hu9.1-RF Fab (Fab, V domains shown)
VH: EVQLVESGGGLVQPGGSLRLSCAASGFTVTAYYMSWVRQAPGKGLEWVGFIRDKANGYTTEYNPSVKGRFTISRDTSKNTFYLQMNSLRAEDTAVYYCAQVRRALDYWGQGTLVTVSS
VL: DIQMTQSPSSLSASVGDRVTITCKSSQSLLYSSNQNNYLAWYQQKPGKAPKLLIYWASTRESGVPSRFSGSGSGTDFTLTISSLQPEDFATYYCQQYYTYPYTFGQGTKVEIKR
fold higher affinity than the chimeric 9.1 Fab [1]: ~2 fold | Kd [2]: 0.14 nM | koff [2]: 0.000294 s⁻¹ | kon [2]: 2.02e+06 M⁻¹ s⁻¹ | Kd [3]: 6.4 nM | koff [3]: 0.00186 s⁻¹ | kon [3]: 290000 M⁻¹ s⁻¹

B4: 24 (Fab, V domains shown)
VH: EVQLVESGGGLVQPGGSLRLSCAASGFTISGSSIHWVRQAPGKGLEWVGTIYPYGGNTYYADSVKGRFTISADTSKNTAYLQMNSLRAEDTAVYYCARRAFVMSGMDYWGQGTLVTVSS
VL: DIQMTQSPSSLSASVGDRVTITCRASQDVSTAVAWYQQKPGKAPKLLIYSASFLYSGVPSRFSGSGSGTDFTLTISSLQPEDFATYYCQQSYTTPPTFGQGTKVEIKR
notes: also called V24; clone 24
binding result [6]: binds | IC50 (mouse BR3-Fc [7]): 133 nM | binding result [8]: no binding | Blocking to % (phage bound in the presence of BAFF) (mouse BR3-Fc [9]): 90%

B5: 96 (Fab, V domains shown)
VH: EVQLVESGGGLVQPGGSLRLSCAASGFTINSSAIHWVRQAPGKGLEWVGYITPASGYTDYADSVKGRFTISADTSKNTAYLQMNSLRAEDTAVYYCAKGFHWYRGFFDYWGQGTLVTVSS
VL: DIQMTQSPSSLSASVGDRVTITCRASQDVSTAVAWYQQKPGKAPKLLIYSASFLYSGVPSRFSGSGSGTDFTLTISSLQPEDFATYYCQQSYTTPPTFGQGTKVEIKR
notes: also called V96; clone 96
binding result [6]: binds | IC50 (mouse BR3-Fc [7]): 200 nM | binding result [8]: no binding | Blocking to % (phage bound in the presence of BAFF) (mouse BR3-Fc [9]): 65%

B6: 89 (Fab, V domains shown)
VH: EVQLVESGGGLVQPGGSLRLSCAASGFTITGYGIHWVRQAPGKGLEWVAGITPANGYTDYADSVKGRFTISADTSKNTAYLQMNSLRAEDTAVYYCAKSFPFHYNFDYWGQGTLVTVSS
VL: DIQMTQSPSSLSASVGDRVTITCRASQDVSTAVAWYQQKPGKAPKLLIYSASFLYSGVPSRFSGSGSGTDFTLTISSLQPEDFATYYCQQSYTTPPTFGQGTKVEIKR
notes: also called V89; clone 89
IC50 [6]: 5000 nM | IC50 (mouse BR3-Fc [7]): 37 nM | binding result [8]: no binding | Blocking to % (phage bound in the presence of BAFF) (mouse BR3-Fc [9]): 90%

B7: 9.1RF N434A IgG (antibody)
light: DIQMTQSPSSLSASVGDRVTITCKSSQSLLYSSNQNNYLAWYQQKPGKAPKLLIYWASTRESGVPSRFSGSGSGTDFTLTISSLQPEDFATYYCQQYYTYPYTFGQGTKVEIKRTVAAPSVFIFPPSDEQLKSGTASVVCLLNNFYPREAKVQWKVDNALQSGNSQESVTEQDSKDSTYSLSSTLTLSKADYEKHKVYACEVTHQGLSSPVTKSFNRGEC
heavy: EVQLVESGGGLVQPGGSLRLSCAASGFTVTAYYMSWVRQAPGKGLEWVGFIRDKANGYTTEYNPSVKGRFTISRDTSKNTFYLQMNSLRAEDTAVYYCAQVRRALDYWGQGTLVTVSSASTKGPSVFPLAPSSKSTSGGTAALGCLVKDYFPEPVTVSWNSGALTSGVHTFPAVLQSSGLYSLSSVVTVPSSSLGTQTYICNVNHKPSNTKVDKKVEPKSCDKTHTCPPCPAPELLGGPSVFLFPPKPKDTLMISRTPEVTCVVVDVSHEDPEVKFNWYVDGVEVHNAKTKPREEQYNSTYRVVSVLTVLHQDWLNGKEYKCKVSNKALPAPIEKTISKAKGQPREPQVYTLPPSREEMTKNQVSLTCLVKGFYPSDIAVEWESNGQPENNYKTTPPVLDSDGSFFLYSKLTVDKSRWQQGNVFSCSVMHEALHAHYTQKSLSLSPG
notes: produced in CHO cells; copies: 2 + 2
koff (human FcRn [10]): 0.0467 s⁻¹ | kon (human FcRn [10]): 884000 M⁻¹ s⁻¹ | koff (cynomolgus FcRn [11]): 0.0962 s⁻¹ | kon (cynomolgus FcRn [11]): 1.7e+06 M⁻¹ s⁻¹ | Kd (human FcRn [12]): 52.8 nM | Kd (cynomolgus FcRn [13]): 56.5 nM | Kd (human FcRn [14]): 66.6 nM | Kd (cynomolgus FcRn [15]): 62.7 nM | binding relative to 9.1RF [16]: 0.97 ratio | binding relative to 9.1RF [17]: 0.66 ratio | binding relative to 9.1RF [18]: 0.45 ratio | EC50 (read off the curve) [19]: ~0.006 µg/mL | EC50 (read off the curve) [20]: ~2 µg/mL

B8: 9.1RF N434W IgG (antibody)
light: DIQMTQSPSSLSASVGDRVTITCKSSQSLLYSSNQNNYLAWYQQKPGKAPKLLIYWASTRESGVPSRFSGSGSGTDFTLTISSLQPEDFATYYCQQYYTYPYTFGQGTKVEIKRTVAAPSVFIFPPSDEQLKSGTASVVCLLNNFYPREAKVQWKVDNALQSGNSQESVTEQDSKDSTYSLSSTLTLSKADYEKHKVYACEVTHQGLSSPVTKSFNRGEC
heavy: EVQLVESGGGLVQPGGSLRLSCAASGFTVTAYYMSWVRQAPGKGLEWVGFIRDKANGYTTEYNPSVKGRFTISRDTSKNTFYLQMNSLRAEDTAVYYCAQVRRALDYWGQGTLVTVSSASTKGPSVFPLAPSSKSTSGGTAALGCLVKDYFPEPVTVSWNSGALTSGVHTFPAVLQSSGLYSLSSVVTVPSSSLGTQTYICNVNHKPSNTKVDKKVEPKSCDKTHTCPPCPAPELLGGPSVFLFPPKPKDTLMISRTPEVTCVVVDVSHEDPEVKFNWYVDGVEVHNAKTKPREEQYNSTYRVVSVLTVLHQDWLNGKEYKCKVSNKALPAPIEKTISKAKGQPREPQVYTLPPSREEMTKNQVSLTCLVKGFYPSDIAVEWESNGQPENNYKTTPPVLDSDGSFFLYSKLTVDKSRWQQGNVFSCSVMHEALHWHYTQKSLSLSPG
notes: as for B7
koff (human FcRn [10]): 0.0102 s⁻¹ | kon (human FcRn [10]): 4.31e+06 M⁻¹ s⁻¹ | koff (cynomolgus FcRn [11]): 0.0144 s⁻¹ | kon (cynomolgus FcRn [11]): 4.74e+06 M⁻¹ s⁻¹ | Kd (human FcRn [12]): 2.37 nM | Kd (cynomolgus FcRn [13]): 3.03 nM | Kd (human FcRn [14]): 5.8 nM | Kd (cynomolgus FcRn [15]): 5.1 nM | binding relative to 9.1RF [16]: 1 ratio | binding relative to 9.1RF [17]: 0.64 ratio | binding relative to 9.1RF [18]: 0.4 ratio | EC50 (read off the curve) [19]: ~0.006 µg/mL | EC50 (read off the curve) [20]: ~2 µg/mL

From patent US20100280227A1 (Genentech, published 2010)
